Ends that are not written are not given here. Peptide text beside a SMILES is read from it.
Experiments:
[1] = target: major capsid protein (p24) of HIV-1 (HIV-1) (UniProt P04591)
[2] = target: viral capsid protein (p24) of HIV-2 (HIV-2)
[3] = target: viral capsid protein (p24) of SIV (SIV)
HIV-1 [4] = details: summary of Experiments 1-6
Experimental: Next, the ability of peptide agents to inhibit viral infection was evaluated. Accordingly, the peptide agents listed in Table 1 were used in several viral (e.g., HIV-1, HIV-2, and SIV) infection assays. […] Once inhibitory tripeptides were identified, more specific assays were conducted to determine the effect of varying concentrations of the selected tripeptides and combination treatments (e.g., the use of more than one modified tripeptide in combination).

HIV-1 [5] = details: 100 μM; Experiment 6
Experimental: The HUT cells were resuspended in 1 ml of RPMI 1640 medium supplemented with 10% (v/v) heat-inactivated fetal bovine serum (FBS, GIBCO), penicillin (100 u/ml), streptomycin (100 u/ml) and Polybrene (Sigma, 2 μg/ml) with or without the presence of the different small peptides (100 μM) mentioned above. Thereafter, the HIV-1 virus was added at 25 TCID50 in a volume of 20 μl. Cells were incubated with the virus at 37° C. for one hour and, subsequently, the cells were pelleted at 170× g for seven minutes. The cells were then washed three times in RPMI medium without peptides at room temperature by cell sedimentation at 170× g for seven minutes, as above. After the final wash, the cells were resuspended in RPMI culture medium in 24-well plate (Costar corporation) and were kept at 37° C. in 5% CO2 with humidity. Culture supernatants were collected when medium was changed at day 4, 7, and 11 post infection and viral p24 production was monitored by using an HIV-1 p24 ELISA kit (Abbott Laboratories, North Chicago, USA).

HIV-1 SF-2 virus = experiment: electron microscopy of HIV-1 particles from infected HUT78 cells; format: cell-based; details: 0.5 μM control sample; cells fixed day 14
Experimental: Evidence that peptide agents inhibit or prevent viral capsid protein polymerization and, thus, proper nucleocapsid assembly was obtained by performing electron microscopy on HIV-1 particles that were contacted with a modified small peptide. In this set of experiments, HUT78 cells were infected with HIV-1 SF-2 virus at 300TCID50 for 1 hr at 37° C. Subsequently, the infected cells were washed and pelleted 3 times. […] GPG-NH2 was then added into the cell cultures 3, 5 or 7 days post infection at concentration of 1 μm or 10 μM. A control sample was administered 0.5 μM Ritonavir (a protease inhibitor). The cells were cultured until day 14, at which point, the cells were fixed in 2.5% glutaraldehyde by conventional means. The fixed cells were then post-fixed in 1% OSO4 and were dehydrated, embedded with epoxy resins, and the blocks were allowed to polymerize. Epon sections of virus infected cells were made approximately 60-80 nm thin in order to accommodate the width of the nucleocapsid. The sections were mounted to grids stained with 1.0% uranyl acetate and were analyzed in a Zeiss CEM 902 microscope at an accelerating voltage of 80 kV. The microscope was equipped with a spectrometer to improve image quality and a liquid nitrogen cooling trap was used to reduce beam damage. The grids having sections of control and GPG-NH2 incubated cells were examined in several blind studies.
(See FIG. 1). […]

[6] = target: T1, major capsid protein (p24) of HIV-1 (HIV-1, UniProt P04591); experiment: cell-based or functional assay
[7] = target: T1, major capsid protein (p24) of HIV-1; experiment: cell-based or functional assay; remark: listed apart in the source

Molecule: GPG-NH2 + CQG-NH2 (pool or library)
- reverse transcriptase (RT) activity in the supernatants, Day 10 RT (OD) [1]: 0.397 OD
- reverse transcriptase (RT) activity in the supernatants, Day 10 RT (OD) [2]: 1.17 OD
- reverse transcriptase (RT) activity in the supernatants, Day 10 RT (OD) [3]: 0.91 OD

Molecule: C[C@H](N)C(=O)N[C@@H](CO)C(=O)NCC(N)=O [ASG-NH2, alanyl-seryl-glycine amide] (H-Ala-Ser-Gly-NH2)
- effect on HIV-1 infection, in words (HIV-1 [4]): inhibited and/or prevented HIV-1 infection
- inhibiting or preventing HIV-1 infection, in words (HIV-1 [5]): less effective

Molecule: CC(C)C[C@H](NC(=O)[C@@H](N)CO)C(=O)NCC(N)=O [SLG-NH2, seryl-leucyl-glycine amide] (H-Ser-Leu-Gly-NH2)
- effect on HIV-1 infection, in words (HIV-1 [4]): inhibited and/or prevented HIV-1 infection
- reduction of virus, capsid protein p24 in the supernatant (HIV-1 [5]): ~100%

Molecule: CC(C)C[C@H](NC(=O)[C@H](C)N)C(=O)NCC(N)=O [ALG-NH2, alanyl-leucyl-glycine amide] (H-Ala-Leu-Gly-NH2)
- effect on HIV-1 infection, in words (HIV-1 [4]): inhibited and/or prevented HIV-1 infection
- reduction of virus, capsid protein p24 in the supernatant (HIV-1 [5]): ~100%

Molecule: GPG-NH2 + GKG-NH2 (pool or library)
- reverse transcriptase (RT) activity in the supernatants, Day 10 RT (OD) [1]: 0.164 OD
- reverse transcriptase (RT) activity in the supernatants, Day 10 RT (OD) [2]: 1.11 OD
- reverse transcriptase (RT) activity in the supernatants, Day 10 RT (OD) [3]: 0.309 OD

Molecule: CC(C)[C@H](N)C(=O)NCC(=O)NCC(N)=O [VGG-NH2, valyl-glycyl-glycine amide] (H-Val-Gly-Gly-NH2)
- effect on HIV-1 infection, in words (HIV-1 [4]): inhibited and/or prevented HIV-1 infection
- inhibiting or preventing HIV-1 infection, in words (HIV-1 [5]): less effective

Molecule: GKG-NH2 + CQG-NH2 (pool or library)
- reverse transcriptase (RT) activity in the supernatants, Day 10 RT (OD) [1]: 1.89 OD
- reverse transcriptase (RT) activity in the supernatants, Day 10 RT (OD) [2]: 2.8 OD
- reverse transcriptase (RT) activity in the supernatants, Day 10 RT (OD) [3]: 2.89 OD

Molecule: N=C(N)NCCC[C@H](N)C(=O)N[C@@H](CCC(N)=O)C(=O)NCC(N)=O [RQG-NH2, arginyl-glutaminyl-glycine amide] (H-Arg-Gln-Gly-NH2)
- effect on HIV-1 infection, in words (HIV-1 [4]): inhibited and/or prevented HIV-1 infection
- reduction of virus, capsid protein p24 in the supernatant (HIV-1 [5]): ~100%

Molecule: NCCCC[C@H](N)C(=O)N[C@@H](CCC(N)=O)C(=O)NCC(N)=O [KQG-NH2, lysyl-glutaminyl-glycine amide] (H-Lys-Gln-Gly-NH2)
- effect on HIV-1 infection, in words (HIV-1 [4]): inhibited and/or prevented HIV-1 infection
- reduction of virus, capsid protein p24 in the supernatant (HIV-1 [5]): ~100%

Molecule: C[C@@H](O)[C@H](NC(=O)[C@@H]1CCCN1C(=O)[C@@H](N)CO)C(N)=O [SPT-NH2, seryl-prolyl-threonine amide] (H-Ser-Pro-Thr-NH2)
- effect on HIV-1 infection, in words (HIV-1 [4]): inhibited and/or prevented HIV-1 infection
- inhibiting or preventing HIV-1 infection, in words (HIV-1 [5]): less effective

Molecule: CC(C)[C@H](NC(=O)CN)C(=O)NCC(N)=O [GVG-NH2, glycyl-valyl-glycine amide] (H-Gly-Val-Gly-NH2)
- effect on HIV-1 infection, in words (HIV-1 [4]): inhibited and/or prevented HIV-1 infection
- inhibiting or preventing HIV-1 infection, in words (HIV-1 [5]): less effective

Molecule: CC(C)c1nc(CN(C)C(=O)N[C@H](C(=O)N[C@@H](Cc2ccccc2)C[C@H](O)[C@H](Cc2ccccc2)NC(=O)OCc2cncs2)C(C)C)cs1 [Ritonavir, reference compound]
- capsid/nucleocapsid morphology of HIV-1 particles (HIV-1 SF-2 virus): malformed structures that did not have a discernable nucleocapsid

B1: Val-Gly-Gly-NH2 (peptide)
peptide: Val-Gly-Gly-NH2
- p24 production of infected HUT78 cells (HIV-1 p24 ELISA), Day 7 HIV-1, reduction (%), peptide at 100 µM [6]: 50%

B2: HKA-NH2 (peptide)
peptide: His-Lys-Ala-NH2
- reverse transcriptase (RT) activity in the supernatants, Day 10 RT (OD) [7]: 2.55 OD

B3: GAT-NH2 (peptide)
peptide: Gly-Ala-Thr-NH2
- reverse transcriptase (RT) activity in the supernatants, Day 10 RT (OD) [7]: 1.56 OD

B4: Arg-Gln-Gly-NH2 (peptide)
peptide: Arg-Gln-Gly-NH2
- p24 production of infected HUT78 cells (HIV-1 p24 ELISA), Day 7 HIV-1, reduction (%), peptide at 100 µM [6]: 99%

B5: Lys-Gln-Gly-NH2 (peptide)
peptide: Lys-Gln-Gly-NH2
- p24 production of infected HUT78 cells (HIV-1 p24 ELISA), Day 7 HIV-1, reduction (%), peptide at 100 µM [6]: 99%

B6: Cys-Gln-Gly-NH2 (peptide)
peptide: Cys-Gln-Gly-NH2
- reverse transcriptase (RT) activity in the supernatants, Day 10 RT (OD) [7]: 0.108 OD

B7: KAR-NH2 (peptide)
peptide: Lys-Ala-Arg-NH2
- reverse transcriptase (RT) activity in the supernatants, Day 10 RT (OD) [7]: 2.78 OD

B8: ARV-NH2 (peptide)
peptide: Ala-Arg-Val-NH2
- reverse transcriptase (RT) activity in the supernatants, Day 10 RT (OD) [7]: 1.53 OD

B9: ACQ-NH2 (peptide)
peptide: Ala-Cys-Gln-NH2
- reverse transcriptase (RT) activity in the supernatants, Day 10 RT (OD) [7]: 0.904 OD

B10: KAL-NH2 (peptide)
peptide: Lys-Ala-Leu-NH2
- reverse transcriptase (RT) activity in the supernatants, Day 10 RT (OD) [7]: 2 OD

B11: Ser-Pro-Thr-NH2 (peptide)
peptide: Ser-Pro-Thr-NH2
- p24 production of infected HUT78 cells (HIV-1 p24 ELISA), Day 7 HIV-1, reduction (%), peptide at 100 µM [6]: 25%

B12: Gly-Val-Gly-NH2 (peptide)
peptide: Gly-Val-Gly-NH2
- p24 production of infected HUT78 cells (HIV-1 p24 ELISA), Day 7 HIV-1, reduction (%), peptide at 100 µM [6]: 25%

B13: Ala-Ser-Gly-NH2 (peptide)
peptide: Ala-Ser-Gly-NH2
- p24 production of infected HUT78 cells (HIV-1 p24 ELISA), Day 7 HIV-1, reduction (%), peptide at 100 µM [6]: 25%

B14: Ser-Leu-Gly-NH2 (peptide)
peptide: Ser-Leu-Gly-NH2
- p24 production of infected HUT78 cells (HIV-1 p24 ELISA), Day 7 HIV-1, reduction (%), peptide at 100 µM [6]: 99%

B15: Ala-Leu-Gly-NH2 (peptide)
peptide: Ala-Leu-Gly-NH2
- p24 production of infected HUT78 cells (HIV-1 p24 ELISA), Day 7 HIV-1, reduction (%), peptide at 100 µM [6]: 100%

From patent US20030050242A1, “Protein polymerization inhibitors and methods of use” (priority 1999, published 2003)
